From patent US9732156B2, “Methods of treating rheumatoid arthritis using antibodies to matrix metalloproteinase 9” (Gilead Biologics, Inc., priority 2012, dated 2017)

Tests used:
UC = conditions: cited from earlier work
DSS-induced colitis [1] = assay: DSS-induced colitis model, treatment of established disease (Example 4); type: in vivo, mouse; conditions: for reduction of the incidence of diarrhea: AUC, did not reach statistical significance; for mean endoscopy score: Day 14 (and Day 10), vs Vehicle and AC-1, AB0046 30 mg/kg IP, ENBREL 10 mg/kg IP; for histopathology: inflammation, edema, mucosal necrosis: colons at termination, compared to vehicle; for MMP9 expression in colon by IHC: three colons per group
From the text: The dextran sodium sulfate (DSS)-induced model of colitis is an accepted model for evaluation of inflammatory bowel disease therapeutics. In this model, oral administration of DSS to mice or rats results in damage to the colonic mucosa. Animals receiving DSS develop bloody diarrhea and lose weight. The inflammation and tissue degradation observed in this model is restricted to the mucosa and generally affects the entire colon. […] The localization of disease and the pathology observed in this model is considered to be reminiscent of human ulcerative colitis (UC), including similar inflammatory cell infiltrate, ulceration, and crypt abscesses.
AB0046 was used in the DSS colitis model (in a 14-day treatment model). Treatment began after 5 days of oral exposure to 3% DSS in drinking water, according to the following experimental design: disease induction with 3% DSS was carried out beginning at day 0 through day 5, with treatment beginning at day 6 (treatment details for animals in groups 1-5 given in Table 2, below); animals were sacrificed at day 14. Etanercept (marketed under the trade name ENBREL®) was used as a reference compound for the therapeutic effect of anti-TNFα therapy in this model. AC-1, an irrelevant antibody of matched isotype (IgG1), was used as a control.
The course of disease was evaluated by video endoscopy (at days 6, 10, and 14), animal weight measurements, observation of stool consistency, and post-study histopathology analysis of colons.
Video endoscopy of the lower colon was performed in a blinded fashion using a small animal endoscope; colitis was scored visually on a scale of 1-4 based on the degree of ulceration, friability, and vascularity present in the tissue. Each mouse was assigned a single score corresponding to the most severe damage observed throughout the entire length of the colon examined.
At study termination, the majority of the distal colon was excised from each animal, formalin-fixed, then embedded in paraffin and sectioned for histology. Slides were stained with hematoxylin and eosin and examined by a board-certified veterinary pathologist blinded as to treatment groups. Tissues were scored for inflammation, edema, and mucosal necrosis according to the scoring scale of 1-4 for each parameter. Sum pathology scores were calculated by summing the three individual parameter score means (inflammation, edema and necrosis).
Body weight and the incidence of diarrhea were recorded daily over the course of the study. The evaluation of body weight changes was performed by calculating the area under the curve (AUC) with the trapezoidal rule method; a similar calculation of AUC for stool consistency was performed by assigning incidence of diarrhea a score of 100 and lack of diarrhea a score of 0.
A trend for reduction of systemic disease-associated cytokines by AB0046 was observed. […] Serum MMP-9 levels were not induced (i.e., no difference between no DSS and vehicle groups; interference by drug antibody cannot be ruled out for MMP9 serum level measurements).

[2] = test system: collagen-induced arthritis; assay: Collagen-induced arthritis (CIA) rat model of established disease; type: in vivo; conditions: terminal serum, ELISA
Protocol: (§1) This example provides additional characterizations of the animals in example 7 that were treated with either vehicle, AB0041 (in the rat model) or AB0046 (in the mouse model) at 2, 10, or 50 mg/Kg, Enbrel at 10 mg/Kg, or methotrexate (MTX) at 0.5 mg/Kg.
(§2) In addition to clinical scoring in Table 6 that was conducted in example 7, paw swelling, ankle diameter and body weights of the treated animals were measured. The measurements were conducted once a week before randomization and three times a week thereafter.
In addition, hind limbs were examined microscopically for soft-tissue changes (edema, tissue/vessel necrosis, inflammatory cell infiltration, and fibroplasias) and cartilage and bone changes (cartilage erosion, bone erosion, periosteal bone formation, synovitis, pannus formation, and joint destruction). […] The severity scores were based on global changes in each limb.
For anti-TNF-alpha scoring, the entire region of the limb anterior to the tarsal-metatarsal joint was scored. Anti-CD68 staining was evaluated using 3-4 images per limb of synovial membranes in the joints formed by the talus bone, with the scores of each membrane averaged and the value assigned as the overall inflammation score. […] Also, MMP9-expressing cells were identified as osteoclasts and cells of the monocyte/macrophage lineage.
(§3) Further, serum panel analyses of terminal serum samples were characterized using ELISA. […] AB0046 titers were measured in terminal serum samples.

Lewis rats = conditions: rat, in vivo
Protocol: AB0041 was evaluated for safety in Lewis rats in comparison to the pan-MMP inhibitor, Marimastat, in a 28-day study.
Six rats per group were intravenously administered twice per week with either AB0041 at 50 mg/kg or Vehicle-A (10 mM sodium phosphate, pH 6.5, 140 mM sodium chloride, 0.01% Tween20). In addition, six rats per group were treated with Marimastat or Vehicle-M (50% DMSO/50% water) through a surgically implanted subcutaneous Alzet pump (Alzet, Cupertino, Calif.), which delivered at a rate of 2.5 μl/hour for a period of 28 days. The Marimastat release rate was between 6.8 to 5.7 mg/kg/day.
Animals were observed and scored daily for signs of MSS, such as reluctance to move and avoidance of the use of the hind feet. The following system was used to score resting posture, gait and willingness to move: resting posture was scored as 0 (normal), 1 (resting on one foot) or 2 (resting on neither one foot nor two feet). Gait was scored as either 0 (normal), 1 (avoids use of one hind foot) or 2 (avoids use of both hind feet). Willingness-to-move upon stimulation was scored as either 0 (normal movement), 1 (somewhat reluctant to move), 2 (moderately reluctant to move) or 3 (very reluctant to move). In addition, the body weights were recorded twice weekly.
Total scores were calculated as the sum of gait score, resting posture score and willingness-to-move score for each animal. Mean total scores per group were calculated as the average of the total scores from all individual animals per group per day.
Serum was collected from all rats on one day before and days 1, 7, 10, 14, 17, 21, 24, 28 post administration. Serum was centrifuged at 10,000×g for 10 minutes and collected for storage at −20° C. Serum was subject to multianalyte serum protein analysis (RodentMAPv2.0, IDEXX Laboratories).
Tissues and limbs from the rats were harvested and fixed in 10% neutral buffered formalin for histopathologic analysis using hematoxylin and eosin (H&E).

DSS-induced colitis [3] = assay: DSS colitis model, prophylactic treatment (Example 5); type: in vivo, mouse
Protocol: The efficacy of AB0046 in a prophylactic setting was assessed and compared with reference agent Prednisolone. The indicated treatment was given at day −1, with the indicated dosing schedules. Induction of disease with 3% DSS was initiated at day 0 and was as described above. Animals were sacrificed at day 14.

[4] = Antibody titers in serum of the CIA study; type: in vivo, mouse
Protocol: as §3

[5] = test system: collagen-induced arthritis; assay: CIA mouse model of rheumatoid arthritis; type: in vivo
Protocol: as §1, §2
In addition, hind limbs were examined microscopically for soft-tissue changes (edema, tissue/vessel necrosis, inflammatory cell infiltration, and fibroplasias) and cartilage and bone changes (cartilage erosion, bone erosion, periosteal bone formation, synovitis, pannus formation, and joint destruction). A standard severity score was used: 0=no significant change, 1=minimal, 2=mild, 3=moderate and 4=severe. The severity scores were based on global changes in each limb.
as §3

CD4+ T cell = assay: EpiScreen ex vivo human T cell activation assay (immunogenicity); type: cell-based; conditions: CD4+ T cell response, 20 healthy donors of various HLA haplotypes
Protocol: The potential clinical immunogenicity of the chimeric MMP9 antibody AB0041 and the humanized MMP9 antibody AB0045 was assessed. An ex vivo human T cell activation assay, the EpiScreen (Antitope, Ltd., Cambridge, UK) was used. The T cell activation in the EpiScreen assay has been correlated to the antibody/protein therapeutic responses in patients. The response of CD4+ T cell in 20 healthy donors, representing a variety of HLA haplotypes, was examined. […] A positive control of KLH induced a response in 95% of the donors, with a magnitude of 6.34+/−2.77 (mean+/−standard deviation).

MMP9 [6] = molecular target: T1, MMP9 (Homo sapiens, UniProt P14780); assay: Comparison of binding and inhibitory properties of anti-MMP9 antibodies; conditions: AB0045 compared with AB0041
Target sequence in this assay (P14780 94-707, species assumed): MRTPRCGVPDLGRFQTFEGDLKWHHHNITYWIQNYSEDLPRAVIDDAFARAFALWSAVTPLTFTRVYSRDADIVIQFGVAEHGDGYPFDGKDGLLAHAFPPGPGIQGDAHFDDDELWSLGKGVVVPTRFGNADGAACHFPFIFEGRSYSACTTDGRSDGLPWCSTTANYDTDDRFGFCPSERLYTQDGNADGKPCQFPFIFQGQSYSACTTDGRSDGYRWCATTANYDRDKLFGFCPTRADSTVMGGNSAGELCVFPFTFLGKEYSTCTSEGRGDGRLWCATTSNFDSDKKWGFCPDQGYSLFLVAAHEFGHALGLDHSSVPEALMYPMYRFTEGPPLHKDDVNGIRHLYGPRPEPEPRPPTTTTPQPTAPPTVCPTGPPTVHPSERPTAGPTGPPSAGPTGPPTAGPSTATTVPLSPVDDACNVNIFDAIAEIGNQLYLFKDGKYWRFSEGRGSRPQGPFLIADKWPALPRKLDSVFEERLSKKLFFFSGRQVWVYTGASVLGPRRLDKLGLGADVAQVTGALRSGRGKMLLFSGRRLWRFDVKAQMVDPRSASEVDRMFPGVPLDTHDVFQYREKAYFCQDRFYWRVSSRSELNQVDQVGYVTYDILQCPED

MMP9 [7] = molecular target: T1, MMP9; assay: IHC binding of AB0045 in UC patient colon tissue; set-up: from tissue; host or cells: colon tissue (biopsies) of human ulcerative colitis patients
Protocol: Biopsy samples from human patients with ulcerative colitis (UC) and healthy individuals were examined by immunohistochemistry (IHC) using the MMP9-specific antibodies. Antibodies against myeloperoxidase (MPO, a neutrophil marker; Wirtz 2007), collagen IV (COLIV, basement membranes) and CD31 (endothelial cells) were used to assess disease severity and tissue infrastructure. Staining patterns of TIMP1 and MMP2 also were examined. PMK2 (a macrophage marker) also was assessed.
Target sequence in this assay (P14780 94-707): as the sequence (P14780 94-707, species assumed) above

For “Infliximab: chimeric therapeutic anti-TNF-alpha antibody Remicade (infliximab)”, the “patients achieving long-term remission completely free of corticosteroids” value (UC) is listed as 26%, the “patients achieving remission by week 8 and remaining in remission through 54 weeks” value (UC) is listed as 20% and the “patients failing to maintain response over 30 or 54 weeks” value (UC) is listed as “approximately 60%”.

In the case of ENBREL [reference compound], the “reduction of the incidence of diarrhea” value (DSS-induced colitis [1]) is reported as “similar”, the mean endoscopy score (DSS-induced colitis [1]) is reported as “significant improvement in endoscopy scores” and the “histopathology: inflammation, edema, mucosal necrosis” value (DSS-induced colitis [1]) is reported as “significantly reduced all three aspects of disease pathology”. For the same molecule, the “MMP9 expression in colon by IHC” value (DSS-induced colitis [1]) was “Reduction of MMP9” and the “serum markers (TIMP-1, GM-CSF, MIP-2, MIP-1β, M-CSF-1, OSM, CXCL10, MCP-5, IL-12p70, INF-γ, IL-12, IL-7)” value [2] was “No reduction of serum markers”.

In the case of `CN(Cc1cnc2nc(N)nc(N)c2n1)c1ccc(C(=O)N[C@@H](CCC(=O)O)C(=O)O)cc1` [methotrexate, reference compound], the “serum markers (TIMP-1, GM-CSF, MIP-2, MIP-1β, M-CSF-1, OSM, CXCL10, MCP-5, IL-12p70, INF-γ, IL-12, IL-7)” value [2] is reported as “consistent increase in these markers”.

In the case of `CNC(=O)[C@@H](NC(=O)[C@H](CC(C)C)[C@H](O)C(=O)NO)C(C)(C)C` [Marimastat], the “average daily total MSS score” value (Lewis rats; Lewis, 18 day) is reported as “above 4.0”, the “average MSS score” value (Lewis rats; Lewis, 25 day) is reported as 5.8 and the “H&E staining of hind knee joints” value (Lewis rats) is reported as “histopathological evidence of fibroplasia was seen”. The “fibrosis and synovitis in limbs” value (Lewis rats) was “Fibrosis and synovitis were observed”, the “rats with slight limping, avoidance of one hind foot (gait score=1)” value (Lewis rats) was “five” and the severity of fibrosis (Lewis rats) was “mild to severe”. For the same molecule, the severity of synovitis (Lewis rats) was “mild”.

B1: AB0046: mouse anti-mouse MMP9 surrogate antibody, kappa light chain (SEQ ID NO: 45), IgG1 heavy chain (SEQ ID NO: 46) (antibody, listed as Mus musculus)
heavy: MGWSSIILFLVATATGVHSQVQLQQPGSVLVRPGASVKLSCTASGYTFTSYWMNWVKQRPGQGLEWIGEIYPISGRTNYNEKFKVKATLTVDTSSSTAYMDLNSLTSEDSAVYYCARSRANWDDYWGQGTTLTVSSAKTTPPSVYPLAPGSAAQTNSMVTLGCLVKGYFPEPVTVTWNSGSLSSGVHTFPAVLQSDLYTLSSSVTVPSSTWPSETVTCNVAHPASSTKVDKKIVPRDCGCKPCICTVPEVSSVFIFPPKPKDVLTITLTPKVTCVVVDISKDDPEVQFSWFVDDVEVHTAQTQPREEQFNSTFRSVSELPIMHQDWLNGKEFKCRVNSAAFPAPIEKTISKTKGRPKAPQVYTIPPPKEQMAKDKVSLTCMITDFFPEDITVEWQWNGQPAENYKNTQPIMDTDGSYFVYSKLNVQKSNWEAGNTFTCSVLHEGLHNHHTEKSLSHSPGK
light: MSSAQFLGLLLLCFQGTRCDIQMTQTTSSLSASLGDRVTISCSASQGISNYLNWYQQKPDGTFKLLIYYTSILHSGVPSRFSGSGSGTDYSLTISNLEPEDIATYYCQQYGWLPRTFGGGTKLEIKRADAAPTVSIFPPSSEQLTSGGASVVCFLNNFYPKDINVKWKIDGSERQNGVLNSWTDQDSKDSTYSMSSTLTLTKDEYERHNSYTCEATHKTSTSPIVKSFNRNEC
modifications: CHAIN (1)...(460) AB0046 IgG1 heavy chain; CHAIN (1)...(233) AB0046 kappa light chain
In the case of B1, the endoscopic evaluation (DSS-induced colitis [3]; Day 10, 30 mg/kg IP from day −1) is reported as “efficacy of AB0046 prophylactic treatment was observed”, the incidence of diarrhea (DSS-induced colitis [3]; prophylactic administration) is reported as “reduced the incidence of diarrhea” and the “inflammation, edema, necrosis and pathology sum score” value (DSS-induced colitis [3]; study termination) is reported as “reduced inflammation, edema, and necrosis”. For the same molecule, the “reduction of the incidence of diarrhea” value (DSS-induced colitis [1]) was “about 30%”, the mean endoscopy score (DSS-induced colitis [1]) was “significant improvement in mean endoscopy scores” and the “histopathology: inflammation, edema, mucosal necrosis” value (DSS-induced colitis [1]) was “significantly reduced all three aspects of disease pathology”. For the same molecule, the “disease-associated increases in serum MCP-1, MCP-3 and eotaxin” value (DSS-induced colitis [1]; terminal serum) was “reduced”, the “serum mediators KC/GRO, CXCL10, MPO, LIF, MIP-2, MCP-5” value (DSS-induced colitis [1]; terminal serum, multianalyte ELISA) was “systemic reduction” and the “serum IL-17A” value (DSS-induced colitis [1]; terminal serum, near lower level of quantification) was “trend for a reduction”. The “serum IL-6” value (DSS-induced colitis [1]; terminal serum, not distinguished from AC-1 isotype control) was “reduction”, the “MMP9 expression in colon by IHC” value (DSS-induced colitis [1]) was “reduction in MMP9 expression” and the “body weight loss (AUC)” value (DSS-induced colitis [1]; vs AC-1 isotype control or vehicle) was “significant protection against body weight loss”. For the same molecule, the “antibody titer in serum” value ([4]; 2 mg/kg dose level) was “not detectable”, the “antibody titer in terminal serum” value ([4]; dosing regimens of 10 and 50 mg/kg) was “measurable drug levels” and the “soft tissue disease, joint damage and destruction (histology)” value ([5]; 50 mg/kg) was “reduced all measures of soft tissue diseases, joint damage and destruction”. The “qualitative and quantitative measurements of clinical disease (paw swelling, ankle diameter, body weight)” value ([5]; all doses (2, 10, 50 mg/Kg)) was “significant reversal/mitigation” and the “serum markers (KC/GRO, MIP-2, GCP-2, lymphotactin, MCP-1, MCP-3, CXCL-10, OSM, MIP-1β, MIP-1γ, Apo A-1)” value ([5]; terminal serum, ELISA) was “statistically significant reduction”.

B2: AB0045: humanized variant anti-MMP9 antibody, modified IgG4 (S241P), heavy chain variant VH3 (SEQ ID NO: 7), light chain Vk4 (SEQ ID NO: 12) (antibody, V domains shown)
VH: QVQLQESGPGLVKPSETLSLTCTVSGFSLLSYGVHWVRQPPGKGLEWLGVIWTGGTTNYNSALMSRFTISKDDSKNTVYLKMNSLKTEDTAIYYCARYYYGMDYWGQGTLVTVSS
VL: DIQMTQSPSSLSASVGDRVTITCKASQDVRNTVAWYQQKPGKAPKLLIYSSSYRNTGVPDRFSGSGSGTDFTLTISSLQAEDVAVYYCQQHYITPYTFGGGTKVEIK
modifications: modified IgG4 S241P constant region
With B2 the “donors in which a response was induced” value (CD4+ T cell) was “did not induce response in any of the donors”, the “binding and inhibitory properties” value (MMP9 [6]) was “equivalent binding and inhibitory properties” and the “binding to MMP9 by IHC” value (MMP9 [7]) was “bound to MMP9 in UC patient colon tissue”.
